Columns and labels:
Experiment in all cases: MST; 200 nM RED-NHS-labelled 6×His–TTP1 constant, decreasing amounts of the binding partner; phosphate-buffered saline; Monolith NT.115, standard capillaries, excitation 100%, MST power 40%; Kd fit for 1:1 stoichiometry
Conditions in all cases: both partners purified
[1] = target: T1, recombinant His-tagged full-length GluTR1 (Arabidopsis, UniProt P42804 62-543)
T1 construct: glutamyl-tRNA reductase 1 (HEMA1), Arabidopsis; called full-length GluTR1 in the legend; source: recombinant, His-tagged

[2] = target: T2, recombinant His-tagged PORB (Arabidopsis, UniProt P21218 67-401)
T2 construct: protochlorophyllide oxidoreductase B, Arabidopsis; source: recombinant, His-tagged
T2 sequence (looked up): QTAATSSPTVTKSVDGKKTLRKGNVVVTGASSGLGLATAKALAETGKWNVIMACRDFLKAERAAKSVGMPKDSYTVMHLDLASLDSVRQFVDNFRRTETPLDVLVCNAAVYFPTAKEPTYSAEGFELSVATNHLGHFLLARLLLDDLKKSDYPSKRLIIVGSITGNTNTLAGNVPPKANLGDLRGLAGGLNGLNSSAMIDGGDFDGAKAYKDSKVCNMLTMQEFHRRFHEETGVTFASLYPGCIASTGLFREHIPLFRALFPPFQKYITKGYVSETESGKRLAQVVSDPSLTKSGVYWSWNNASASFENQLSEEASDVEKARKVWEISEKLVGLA

[3] = target: T3, recombinant His-tagged GluTR-binding protein (GBP) (Arabidopsis, UniProt Q9LU39 43-317)
T3 construct: source: recombinant, His-tagged
T3 sequence (looked up): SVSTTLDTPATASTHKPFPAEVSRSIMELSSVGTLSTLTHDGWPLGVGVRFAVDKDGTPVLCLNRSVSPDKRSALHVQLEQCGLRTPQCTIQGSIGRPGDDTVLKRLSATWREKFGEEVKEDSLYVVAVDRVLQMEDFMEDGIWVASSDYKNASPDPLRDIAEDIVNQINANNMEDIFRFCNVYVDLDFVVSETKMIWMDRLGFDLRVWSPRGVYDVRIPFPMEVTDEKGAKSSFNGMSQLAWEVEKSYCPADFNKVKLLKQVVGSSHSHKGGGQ

[4] = target: T4, recombinant His-tagged PORC (Arabidopsis, UniProt O48741 68-401)
T4 construct: protochlorophyllide oxidoreductase C, Arabidopsis; source: recombinant, His-tagged
T4 sequence (looked up): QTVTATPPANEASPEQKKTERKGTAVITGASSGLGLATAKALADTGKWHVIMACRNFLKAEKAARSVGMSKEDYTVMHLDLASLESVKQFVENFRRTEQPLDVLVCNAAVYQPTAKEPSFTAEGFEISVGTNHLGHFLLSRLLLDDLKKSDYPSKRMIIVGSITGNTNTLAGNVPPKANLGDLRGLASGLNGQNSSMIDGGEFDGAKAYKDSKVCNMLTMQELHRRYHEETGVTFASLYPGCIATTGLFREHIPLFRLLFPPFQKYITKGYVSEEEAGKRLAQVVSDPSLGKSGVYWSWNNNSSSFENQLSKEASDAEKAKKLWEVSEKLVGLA

Measured: Kd

B1: recombinant 6×His-tagged TTP1, RED-NHS labelled (natural protein)
chain: MLMTLAATTSVSFNSKLLLFRIRCSDSNPKRGFGSKKEEKDPALQQRKSSSKQSVSVPRKAPGLNTQFEGKSGRSFDIDFDERLENIRRSALEQKKTEVVKEFGPIDYDAPVKSDQKTIGLGTKVGVGIAVVVFGLVFALGDFLPTGSDSPTKNTTVVKNQISEEEKATLQQRLKEFETTLNGTPQDQAALEGAAVTLTELGDYSRAAAFLEKLAKERPTDPDVFRLLGEVNYELNNYEGSIAAYKISEKVSKGIDLEVTRGLMNAYLAAKKPDEAVKFLLDTRERLNTKKTSTTDSVTDETNLDPIQVELLLGKAYSDWGHISDAIAVYDQLISAHPEDFRGYLAKGIILRENGSRGDAERMFIQARFFAPNKAKALVDRYSKL
modifications: labelled with the RED-NHS Protein Labeling Kit, degree of labeling approximately 1.0
< 1000 nM: all assays above
